The values below come from paper PMC4737123.

In assay [1] the target is purified human IgM (non‐specific IgM) (human). Nature of the assay: SPR; Biacore 2000; IgM (750 RU) immobilised on a CM4 chip by amine coupling; FV6 or FV2 flowed over (1.125-18 nM); HEPES buffer (0.01 M HEPES, 0.15 M NaCl, 3 mM EDTA, 0.005% P20) pH 7.4, 20°C; global 1:1 interaction model. A general note: SPR reads the build-up and loss of mass on a sensor chip optically.

Assay [2] shares this target. Description: AUC; sedimentation velocity, 40 000 r.p.m., 20°C, PBS; FV6 alone, IgM alone, and IgM (0.2 μM) with FV6 at molar ratios 1:1, 1:2 and 1:3; continuous size distribution (SEDFIT).

In assay [1], “recombinant full‐length HB3VAR06 (FV6), entire ectodomain of the PfEMP1 protein HB3VAR06 (domain or fragment)” gave a Kd of 0.1 nM, a koff of 0.0003 s⁻¹ and a kon of 2.3e+06 M⁻¹ s⁻¹. Also, the stoichiometry N in assay [2] was found to be 2 FV6 per IgM.

In assay [1], “recombinant full‐length IT4VAR04 (a VAR2CSA‐type PfEMP1; FV2) (natural protein)” returned a Kd of 0.3 nM, a koff of 0.00051 s⁻¹ and a kon of 1.8e+06 M⁻¹ s⁻¹.

The Kd is the concentration at which binding is half-saturated. Usually koff stands for the first-order rate constant of dissociation. High values mean a short-lived complex, low ones a long-lived complex. In general, kon refers to the rate constant with which the complex forms. Read a high kon as faster complex formation. In general, stoichiometry N refers to the number of molecules, sites or subunits per partner or assembly.
